Legend:
[1] = Western blot of media, sAPPβ (1A9); settings: glycan lost; control: empty vector (Hyg) cell line
[2] = flow cytometry, cell surface APP, non-permeabilised cells; settings: glycan lost; control: APPWT cell line

β-Amyloid precursor protein (APP695): APPN467K
other: proteolytic processing [1]: decreases | localisation_or_trafficking [2]: decreases

β-Amyloid precursor protein (APP695): APPN496K
other: proteolytic processing [1]: decreases | localisation_or_trafficking [2]: decreases
